The target of one series is T1, Abz-DRRL-EDDnp.
T1 chain: DRRL

The target of another series is T2, Abz-GFSDYK(Dnp)-OH.
T2 chain: GFSDYK

Substrate in series [1]: Nc1ccccc1C(=O)NCC(=O)N[C@@H](Cc1ccccc1)C(=O)N[C@@H](CO)C(=O)N[C@@H](CC(=O)O)C(=O)N[C@@H](Cc1ccc(O)cc1)C(=O)N[C@@H](CCCCNc1ccc([N+](=O)[O-])cc1[N+](=O)[O-])C(=O)O
The series is described as follows: Hydrolysis by membrane-bound PHEX from transfected LLC-PK1 cells. In kind it is biochemical, human. The note with it: other: membrane-bound PHEX, 0.01 M Bis-Tris pH 5.5, 150 mM NaCl, 37° C. As to the method: (§1) FIG. 3 graphically illustrates hydrolysis of Abz-GFSDYK(Dnp)-OH (SEQ ID NO:3) by secPHEX and membrane-bound PHEX. Abz-GFSDYK(Dnp)-OH (SEQ ID NO:3) at a concentration of 10 μM was incubated at 37° C., in 0.01 M Bis-Tris buffer, pH 5.5 with 150 mM NaCl, containing 2,1 μg total proteins from membranes extracted from LLC-PK1 transfected with vector alone (notes as “A” on the figure), or 2,1 μg total proteins from membranes extracted from LLC-PK1 transfected with the membrane-bound form of human PHEX (noted as “□” on the figure); or 2,1 μg total proteins from membranes extracted from LLC-PK1 transfected with vector alone to which 500 ng purified secPHEX were added (noted as “o” on the figure). Fluorescence was monitored every 4 min for a period of 28 min. Amounts of secPHEX or membrane-bound PHEX (mPHEX) in the enzymatic reactions were evaluated by immunoblotting (Inset). Mock: cells transfected with vector alone;
(§2) The human recombinant secPHEX was obtained following the procedure previously described (17, WO 00/50580). Purified secPHEX concentration was determined using the Bradford method (DC protein assay kit; Bio-Rad, Mississauga, ON, Canada). […] Insoluble material was pelleted by centrifugation at 10,000 g for 15 min and protein concentrations of the supernatant determined using the Bradford method described above. PHEX amounts were evaluated by immunoblotting as described previously (17). […]

Another series deals with T3, Abz-A110-WLDSGVQ-EDDnp.
T3 chain: AWLDSGVQ

The next series has as its target T4, Abz-D125-HLSDTSTQ-EDDnp.
T4 chain: DHLSDTSTQ

The target in a further series is T5, Abz-G337-SNDIMGQ-EDDnp.
T5 chain: GSNDIMGQ

For a further series, the target named is T6, Abz-G386-SSDAAEQ-EDDnp.
T6 chain: GSSDAAEQ

A further series concerns the target T7, Abz-GFSDYK(Dnp)-NH2.
T7 chain: GFSDYK

The next series deals with T8, Abz-GFSDYQ-EDDnp.
T8 chain: GFSDYQ

Another series concerns the target T9, Abz-GFSEYK(Dnp)-NH2.
T9 chain: GFSEYK

The target in a further series is T10, Abz-GFSEYK(Dnp)-OH.
T10 chain: GFSEYK

In another series the target is T11, Abz-GP197-QRDSQAQ-EDDnp.
T11 chain: GPQRDSQAQ

The next series concerns the target T12, Abz-I232-PSDFEGQ-EDDnp.
T12 chain: IPSDFEGQ

The target in a further series is T13, Abz-L134-ELDSRQ-EDDnp.
T13 chain: LELDSRQ

The target in the next series is T14, Abz-L94-MMDFRGQ-EDDnp.
T14 chain: LMMDFRGQ

Another series deals with T15, Abz-N122-GYDVYHQ-EDDnp.
T15 chain: NGYDVYHQ

For another series, the target named is T16, Abz-N449-EMDSFNQ-EDDnp.
T16 chain: NEMDSFNQ

Series [2] has as its target T17, Abz-R175-RHTQSAEDDSERQ-EDDnp.
T17 chain: RRHTQSAEDDSERQ

In series [3] the target is T18, Abz-R175-RHTRSAEDDSERQ-EDDnp.
T18 chain: RRHTRSAEDDSERQ

A further series has as its target T19, Abz-R441-GLDNEIQ-EDDnp.
T19 chain: RGLDNEIQ

A further series deals with T20, Abz-R506-RDDSSEQ-EDDnp.
T20 chain: RRDDSSEQ

The target in a further series is T21, Abz-R76-SEDAGFQ-EDDnp.
T21 chain: RSEDAGFQ

The next series deals with T22, Abz-S212-AEDNSPQ-EDDnp.
T22 chain: SAEDNSPQ

For the next series, the target named is T23, Abz-S513-SDSGSQ-EDDnp.
T23 chain: SSDSGSQ

The next series addresses T24, Abz-T294-HLDTKKQ-EDDnp.
T24 chain: THLDTKKQ

Substrate in series [4]: Nc1ccccc1C(=O)NCC(=O)N[C@@H](Cc1ccccc1)C(=O)N[C@@H](CO)C(=O)N[C@@H](CC(=O)O)C(=O)N[C@@H](Cc1ccc(O)cc1)C(=O)N[C@@H](CCCCNc1ccc([N+](=O)[O-])cc1[N+](=O)[O-])C(=O)O
The series is described as follows: Hydrolysis by secPHEX added to membranes of vector-transfected LLC-PK1 cells. The series is classed as biochemical, human. The note with it: other: secPHEX added to membranes from cells transfected with vector alone, 0.01 M Bis-Tris pH 5.5, 150 mM NaCl, 37° C. Here is the method:
as §1, §2

Where “and” joins values, the source holds several entries; their conditions need not be identical. Equal values may be shown once.

A word on the Km: it is the concentration of substrate that gives half-maximal velocity. As usually defined, the kcat is the maximal rate divided by the concentration of active sites. The term kcat/Km denotes the second-order rate constant that governs catalysis at low substrate concentration.

B1: membrane-bound form of human PHEX (Homo sapiens) (protein)
chain: MEAETGSSVETGKKANRGTRIALVVFVGGTLVLGTILFLVSQGLLSLQAKQEYCLKPECIEAAAAILSKVNLSVDPCDNFFRFACDGWISNNPIPEDMPSYGVYPWLRHNVDLKLKELLEKSISRRRDTEAIQKAKILYSSCMNEKAIEKADAKPLLHILRHSPFRWPVLESNIGPEGVWSERKFSLLQTLATFRGQYSNSVFIRLYVSPDDKASNEHILKLDQATLSLAVREDYLDNSTEAKSYRDALYKFMVDTAVLLGANSSRAEHDMKSVLRLEIKIAEIMIPHENRTSEAMYNKMNISELSAMIPQFDWLGYIKKVIDTRLYPHLKDISPSENVVVRVPQYFKDLFRILGSERKKTIANYLVWRMVYSRIPNLSRRFQYRWLEFSRVIQGTTTLLPQWDKCVNFIESALPYVVGKMFVDVYFQEDKKEMMEELVEGVRWAFIDMLEKENEWMDAGTKRKAKEKARAVLAKVGYPEFIMNDTHVNEDLKAIKFSEADYFGNVLQTRKYLAQSDFFWLRKAVPKTEWFTNPTTVNAFYSASTNQIRFPAGELQKPFFWGTEYPRSLSYGAIGVIVGHEFTHGFDNNGRKYDKNGNLDPWWSTESEEKFKEKTKCMINQYSNYYWKKAGLNVKGKRTLGENIADNGGLREAFRAYRKWINDRRQGLEEPLLPGITFTNNQLFFLSYAHVRCNSYRPEAAREQVQIGAHSPPQFRVNGAISNFEEFQKAFNCPPNSTMNRGMDSCRLW
notes: expressed in transfected cells; host or cells: LLC-PK1 (porcine kidney cells)
For B1, the “substrate hydrolysis (fluorescence)” value is reported as “Neither enzyme hydrolyzed this substrate” with Abz-DRRL-EDDnp and “degradation of the substrate was observed” with Abz-GFSDYK(Dnp)-OH. The Km with Abz-GFSDYK(Dnp)-OH is 5×10^-6 M and 10×10^-6 M, for secPHEX and membrane-bound PHEX, respectively; in [1] it was 10 µM.

B2: human recombinant secPHEX (pure soluble form of PHEX) (protein)
chain: SLQAKQEYCLKPECIEAAAAILSKVNLSVDPCDNFFRFACDGWISNNPIPEDMPSYGVYPWLRHNVDLKLKELLEKSISRRRDTEAIQKAKILYSSCMNEKAIEKADAKPLLHILRHSPFRWPVLESNIGPEGVWSERKFSLLQTLATFRGQYSNSVFIRLYVSPDDKASNEHILKLDQATLSLAVREDYLDNSTEAKSYRDALYKFMVDTAVLLGANSSRAEHDMKSVLRLEIKIAEIMIPHENRTSEAMYNKMNISELSAMIPQFDWLGYIKKVIDTRLYPHLKDISPSENVVVRVPQYFKDLFRILGSERKKTIANYLVWRMVYSRIPNLSRRFQYRWLEFSRVIQGTTTLLPQWDKCVNFIESALPYVVGKMFVDVYFQEDKKEMMEELVEGVRWAFIDMLEKENEWMDAGTKRKAKEKARAVLAKVGYPEFIMNDTHVNEDLKAIKFSEADYFGNVLQTRKYLAQSDFFWLRKAVPKTEWFTNPTTVNAFYSASTNQIRFPAGELQKPFFWGTEYPRSLSYGAIGVIVGHEFTHGFDNNGRKYDKNGNLDPWWSTESEEKFKEKTKCMINQYSNYYWKKAGLNVKGKRTLGENIADNGGLREAFRAYRKWINDRRQGLEEPLLPGITFTNNQLFFLSYAHVRCNSYRPEAAREQVQIGAHSPPQFRVNGAISNFEEFQKAFNCPPNSTMNRGMDSCRLW
With B2, the Km in the series with Abz-A110-WLDSGVQ-EDDnp is 1.5 µM; with Abz-D125-HLSDTSTQ-EDDnp, 1.3 µM; with Abz-G337-SNDIMGQ-EDDnp, 13 µM; with Abz-G386-SSDAAEQ-EDDnp, 2.4 µM; with Abz-GFSDYK(Dnp)-NH2, 53.2 µM; with Abz-GFSDYK(Dnp)-OH, 3 µM and 5×10^-6 M and 10×10^-6 M, for secPHEX and membrane-bound PHEX, respectively. Further, the Michaelis constant (Km) in the series with Abz-GFSDYQ-EDDnp is 13.3 µM; with Abz-GP197-QRDSQAQ-EDDnp, 47 µM; with Abz-L134-ELDSRQ-EDDnp, 0.9 µM; with Abz-L94-MMDFRGQ-EDDnp, 17 µM; with Abz-N122-GYDVYHQ-EDDnp, 9 µM; with Abz-N449-EMDSFNQ-EDDnp, 38 µM. Besides, the Km in series [2] turned out to be 1.7 µM; in series [3], 3 µM; in the series with Abz-R441-GLDNEIQ-EDDnp it was 7 µM; with Abz-R506-RDDSSEQ-EDDnp, 5.3 µM; with Abz-R76-SEDAGFQ-EDDnp, 4.1 µM; with Abz-S212-AEDNSPQ-EDDnp, 22 µM. Further, the figures for the Km in the series with Abz-S513-SDSGSQ-EDDnp and in the series with Abz-T294-HLDTKKQ-EDDnp were 31.6 µM and 15 µM, respectively. For the same protein, the kcat came to 0.04 s⁻¹ with Abz-A110-WLDSGVQ-EDDnp; 0.1 s⁻¹ with Abz-D125-HLSDTSTQ-EDDnp; 0.01 s⁻¹ with Abz-G337-SNDIMGQ-EDDnp; 0.3 s⁻¹ in the series with Abz-G386-SSDAAEQ-EDDnp; 1.3 s⁻¹ in the series with Abz-GFSDYK(Dnp)-NH2; 0.5 s⁻¹ with Abz-GFSDYK(Dnp)-OH. Also, the kcat came out at 0.6 s⁻¹ with Abz-GFSDYQ-EDDnp; 0.2 s⁻¹ with Abz-GP197-QRDSQAQ-EDDnp; 0.05 s⁻¹ with Abz-L134-ELDSRQ-EDDnp; 0.8 s⁻¹ in the series with Abz-L94-MMDFRGQ-EDDnp; 0.01 s⁻¹ in the series with Abz-N122-GYDVYHQ-EDDnp; 0.3 s⁻¹ with Abz-N449-EMDSFNQ-EDDnp. Further, the kcat is 0.15 s⁻¹ in [2]; 0.2 s⁻¹ in series [3]; 0.03 s⁻¹ with Abz-R441-GLDNEIQ-EDDnp; 0.5 s⁻¹ with Abz-R506-RDDSSEQ-EDDnp; 0.06 s⁻¹ in the series with Abz-R76-SEDAGFQ-EDDnp; 0.3 s⁻¹ in the series with Abz-S212-AEDNSPQ-EDDnp. Moreover, the kcat with Abz-S513-SDSGSQ-EDDnp is 0.2 s⁻¹; in the series with Abz-T294-HLDTKKQ-EDDnp, 0.02 s⁻¹. Further, the kcat/Km with Abz-A110-WLDSGVQ-EDDnp was 26700 M⁻¹ s⁻¹; in the series with Abz-D125-HLSDTSTQ-EDDnp it was 77000 M⁻¹ s⁻¹; in the series with Abz-G337-SNDIMGQ-EDDnp, 800 M⁻¹ s⁻¹; in the series with Abz-G386-SSDAAEQ-EDDnp it was 125000 M⁻¹ s⁻¹; with Abz-GFSDYK(Dnp)-NH2, 24400 M⁻¹ s⁻¹; in the series with Abz-GFSDYK(Dnp)-OH it was 167000 M⁻¹ s⁻¹. Besides, the kcat/Km with Abz-GFSDYQ-EDDnp amounted to 45100 M⁻¹ s⁻¹; with Abz-GP197-QRDSQAQ-EDDnp it was 4300 M⁻¹ s⁻¹; with Abz-L134-ELDSRQ-EDDnp, 55500 M⁻¹ s⁻¹; with Abz-L94-MMDFRGQ-EDDnp, 45000 M⁻¹ s⁻¹; with Abz-N122-GYDVYHQ-EDDnp, 1100 M⁻¹ s⁻¹; in the series with Abz-N449-EMDSFNQ-EDDnp it was 7900 M⁻¹ s⁻¹. Also, the kcat/Km in [2] was 88200 M⁻¹ s⁻¹; in [3], 66700 M⁻¹ s⁻¹; with Abz-R441-GLDNEIQ-EDDnp, 4300 M⁻¹ s⁻¹; with Abz-R506-RDDSSEQ-EDDnp it was 94300 M⁻¹ s⁻¹; with Abz-R76-SEDAGFQ-EDDnp, 14600 M⁻¹ s⁻¹; in the series with Abz-S212-AEDNSPQ-EDDnp it was 13600 M⁻¹ s⁻¹. The values for the specificity constant (kcat/Km) with Abz-S513-SDSGSQ-EDDnp and in the series with Abz-T294-HLDTKKQ-EDDnp were 7100 M⁻¹ s⁻¹ and 1300 M⁻¹ s⁻¹, respectively. Moreover, the “substrate hydrolysis (fluorescence)” value with Abz-DRRL-EDDnp was “Neither enzyme hydrolyzed this substrate”; with Abz-GFSDYK(Dnp)-OH, “degradation of the substrate was observed”. Also, in the series with Abz-GFSDYK(Dnp)-NH2, the “fold decrease in catalytic efficiency against Abz-GFSDYK(Dnp)-OH” value is “a 6-fold decrease in catalytic efficiency due to its low affinity for the enzyme”. Also, the “hydrolysis by PHEX” value with Abz-GFSEYK(Dnp)-NH2 is recorded as “Resistant”. Besides, the kcat/Km (pseudo first-order conditions) in the series with Abz-GFSEYK(Dnp)-OH turned out to be 9000 M⁻¹ s⁻¹. Moreover, in the series with Abz-I232-PSDFEGQ-EDDnp, the kcat/Km (pseudo-first order conditions) worked out at 80000 M⁻¹ s⁻¹.

B3: secPHEX (Homo sapiens) (protein)
chain: B2 chain
notes: pure soluble form of PHEX (secPHEX); made in house
On to B3, for which the Km in series [4] is 5 µM.
